The record followed here is patent publication US20030108554A1 (published 2003).

Series [1] deals with T1, purified yeast recombinant GIP90 with FLAG tag at N-terminal position and 6 histidine tail at C-terminal position.
T1 chain: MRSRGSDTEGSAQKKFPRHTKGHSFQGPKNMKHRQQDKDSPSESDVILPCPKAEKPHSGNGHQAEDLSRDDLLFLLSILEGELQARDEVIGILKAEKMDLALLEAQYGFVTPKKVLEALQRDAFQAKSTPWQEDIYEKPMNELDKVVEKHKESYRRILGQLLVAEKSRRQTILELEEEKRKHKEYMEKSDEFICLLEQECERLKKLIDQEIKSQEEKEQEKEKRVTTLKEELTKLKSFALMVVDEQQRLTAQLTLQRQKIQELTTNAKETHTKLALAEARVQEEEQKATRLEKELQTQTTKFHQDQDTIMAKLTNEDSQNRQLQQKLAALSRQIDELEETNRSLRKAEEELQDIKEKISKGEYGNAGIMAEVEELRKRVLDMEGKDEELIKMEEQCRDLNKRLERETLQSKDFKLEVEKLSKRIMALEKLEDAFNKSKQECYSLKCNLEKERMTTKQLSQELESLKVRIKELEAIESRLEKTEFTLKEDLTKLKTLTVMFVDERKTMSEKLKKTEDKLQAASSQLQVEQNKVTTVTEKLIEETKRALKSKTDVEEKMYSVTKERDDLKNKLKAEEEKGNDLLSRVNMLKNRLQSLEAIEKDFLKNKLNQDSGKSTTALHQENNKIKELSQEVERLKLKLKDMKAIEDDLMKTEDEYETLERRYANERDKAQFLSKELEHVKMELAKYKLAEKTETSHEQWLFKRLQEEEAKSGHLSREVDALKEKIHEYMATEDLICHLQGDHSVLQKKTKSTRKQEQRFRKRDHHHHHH

Another series addresses T2, pol κ (UniProt Q9UBT6 1-870).
T2 construct: Tested in yeast two-hybrid (GAL4 domain fusion); also called primary protein product of the POLK
T2 sequence (looked up): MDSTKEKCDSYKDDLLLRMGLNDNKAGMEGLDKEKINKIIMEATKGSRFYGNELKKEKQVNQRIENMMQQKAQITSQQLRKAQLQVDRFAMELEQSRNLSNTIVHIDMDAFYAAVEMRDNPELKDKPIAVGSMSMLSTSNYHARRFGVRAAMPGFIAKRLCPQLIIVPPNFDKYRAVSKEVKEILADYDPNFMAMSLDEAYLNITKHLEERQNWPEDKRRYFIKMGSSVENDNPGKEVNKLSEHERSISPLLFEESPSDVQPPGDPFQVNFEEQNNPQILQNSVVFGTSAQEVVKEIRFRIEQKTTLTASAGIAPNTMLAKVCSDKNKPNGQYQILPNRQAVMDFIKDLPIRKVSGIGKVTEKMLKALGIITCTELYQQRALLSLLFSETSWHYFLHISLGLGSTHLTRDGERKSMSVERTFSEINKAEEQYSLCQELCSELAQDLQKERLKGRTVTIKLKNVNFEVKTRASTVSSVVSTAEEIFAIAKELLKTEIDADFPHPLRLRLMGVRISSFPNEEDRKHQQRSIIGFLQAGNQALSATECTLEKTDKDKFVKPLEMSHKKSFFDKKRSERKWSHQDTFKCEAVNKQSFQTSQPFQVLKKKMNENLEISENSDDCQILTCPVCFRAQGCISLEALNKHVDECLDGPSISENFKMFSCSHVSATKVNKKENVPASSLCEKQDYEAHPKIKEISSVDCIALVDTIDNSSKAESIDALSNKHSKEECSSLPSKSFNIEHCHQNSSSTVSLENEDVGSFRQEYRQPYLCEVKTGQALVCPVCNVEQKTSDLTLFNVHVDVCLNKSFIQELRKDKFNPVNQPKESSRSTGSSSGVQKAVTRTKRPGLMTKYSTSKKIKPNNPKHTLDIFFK
Nature of the series: yeast two-hybrid.

For series [2], the target named is T3, GIP90 (GPBP interacting protein 90 kDa) (human, UniProt Q4L180 1-749, limits assumed).
T3 construct: Full length; tested as GAL4 domain fusion in yeast two-hybrid/three-hybrid; fusion parts are not written as pieces
T3 sequence: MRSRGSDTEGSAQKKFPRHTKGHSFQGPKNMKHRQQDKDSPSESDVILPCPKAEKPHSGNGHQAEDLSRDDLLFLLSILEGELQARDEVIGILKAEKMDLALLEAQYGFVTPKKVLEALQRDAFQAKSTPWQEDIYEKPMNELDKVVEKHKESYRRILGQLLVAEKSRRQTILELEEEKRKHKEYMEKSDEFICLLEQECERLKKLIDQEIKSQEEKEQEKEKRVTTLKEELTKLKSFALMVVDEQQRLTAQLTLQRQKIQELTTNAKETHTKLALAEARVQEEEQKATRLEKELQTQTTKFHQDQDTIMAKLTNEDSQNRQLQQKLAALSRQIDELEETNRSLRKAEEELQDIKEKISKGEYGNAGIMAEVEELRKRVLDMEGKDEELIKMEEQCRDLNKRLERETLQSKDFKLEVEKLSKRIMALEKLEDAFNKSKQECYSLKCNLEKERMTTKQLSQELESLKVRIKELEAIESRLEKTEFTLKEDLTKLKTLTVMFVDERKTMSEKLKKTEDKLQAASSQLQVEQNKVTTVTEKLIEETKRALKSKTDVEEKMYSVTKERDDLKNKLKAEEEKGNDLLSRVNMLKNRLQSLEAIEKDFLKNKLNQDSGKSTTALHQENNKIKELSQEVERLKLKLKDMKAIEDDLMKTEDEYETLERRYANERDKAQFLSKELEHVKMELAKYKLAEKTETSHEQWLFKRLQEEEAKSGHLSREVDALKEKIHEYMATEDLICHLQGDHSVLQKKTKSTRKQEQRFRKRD
Put plainly: yeast two-hybrid, β-galactosidase colony lift. The protocol: Deletion mutants were obtained using specific primers and PCR, followed by cloning of the resulting cDNAs in the pGBT9 and pGAD424 vectors. The assays were performed in SFY526 or HF7c Saccharomyces cerevisiae strains, with pGBT9 as GAL4 binding domain vector and pGAD424 as GAL4 activation domain vector, by the lift colony assay procedure. Briefly, the yeast cells were co-transformed with constructs of both binding domain and activation domain vectors, and the co-transformants were selected in medium deficient in both tryptophan and leucine. After five days of incubation at 30° C. the colonies were tested for the expression of β-galactosidase with X-Gal substrate (0.75 mg/ml). […] When the assays were performed with the HF7c strain, the interactions were assessed by the lift colony assay procedure and by growth in medium deficient in histidine, tryptophan and leucine. For yeast three-hybrid system, we used the pBRIDGE vector, which allows the conditional expression of a third protein apart from the usual GAL4 binding and activation domain-fusion proteins of the two-hybrid system. In this case, the expression of GPBP or I-20 or GIP90 was driven by Met25 promoter, active in absence of methionine. In these experiments, the transformed SFY526 cells were plated in medium deficient in tryptophan, leucine and methionine, and subjected to the colony lift assay after five days at 30° C. […]

B1: Goodpasture antigen binding protein (GPBP) (enzyme, UniProt Q9Y5P4 1-624, looked up)
chain: MSDNQSWNSSGSEEDPETESGPPVERCGVLSKWTNYIHGWQDRWVVLKNNALSYYKSEDETEYGCRGSICLSKAVITPHDFDECRFDISVNDSVWYLRAQDPDHRQQWIDAIEQHKTESGYGSESSLRRHGSMVSLVSGASGYSATSTSSFKKGHSLREKLAEMETFRDILCRQVDTLQKYFDACADAVSKDELQRDKVVEDDEDDFPTTRSDGDFLHSTNGNKEKLFPHVTPKGINGIDFKGEAITFKATTAGILATLSHCIELMVKREDSWQKRLDKETEKKRRTEEAYKNAMTELKKKSHFGGPDYEEGPNSLINEEEFFDAVEAALDRQDKIEEQSQSEKVRLHWPTSLPSGDAFSSVGTHRFVQKPYSRSSSMSSIDLVSASDDVHRFSSQVEEMVQNHMTYSLQDVGGDANWQLVVEEGEMKVYRREVEENGIVLDPLKATHAVKGVTGHEVCNYFWNVDVRNDWETTIENFHVVETLADNAIIIYQTHKRVWPASQRDVLYLSVIRKIPALTENDPETWIVCNFSVDHDSAPLNNRCVRAKINVAMICQTLVSPPEGNQEISRDNILCKITYVANVNPGGWAPASVLRAVAKREYPKFLKRFTSYVQEKTAGKPILF
notes: Protein kinase; Fusion parts are not written as pieces
Consider B1, for which, in series [1], the “^32P incorporation into GIP90 (in vitro phosphorylation with [γ^32P] ATP, Western blot and autoradiography)” value is “resulted in ^32P incorporation into GIP90”. In addition, the binding result with pol κ is recorded as “no binding”; in series [2] it was “binds”.
